Among the data in paper PMC10382678 are percent reduction of ectoLRP4-AP (25 nM) binding to ColQ by 500 nM agrin values, retold here.

For this assay, the target named is ectoLRP4-AP (alkaline phosphatase-conjugated ectodomain of mouse LRP4) (mouse) (UniProt Q8VI56). The assay can be described thus: ELISA; plate-binding assay, competition: 500 nM purified recombinant neural agrin added to 25 nM ectoLRP4-AP on ColQ-coated wells; agrin as the competitor that binds LRP4.
Sequence of ectoLRP4-AP (alkaline phosphatase-conjugated ectodomain of mouse LRP4) (mouse) (Q8VI56 21-1725): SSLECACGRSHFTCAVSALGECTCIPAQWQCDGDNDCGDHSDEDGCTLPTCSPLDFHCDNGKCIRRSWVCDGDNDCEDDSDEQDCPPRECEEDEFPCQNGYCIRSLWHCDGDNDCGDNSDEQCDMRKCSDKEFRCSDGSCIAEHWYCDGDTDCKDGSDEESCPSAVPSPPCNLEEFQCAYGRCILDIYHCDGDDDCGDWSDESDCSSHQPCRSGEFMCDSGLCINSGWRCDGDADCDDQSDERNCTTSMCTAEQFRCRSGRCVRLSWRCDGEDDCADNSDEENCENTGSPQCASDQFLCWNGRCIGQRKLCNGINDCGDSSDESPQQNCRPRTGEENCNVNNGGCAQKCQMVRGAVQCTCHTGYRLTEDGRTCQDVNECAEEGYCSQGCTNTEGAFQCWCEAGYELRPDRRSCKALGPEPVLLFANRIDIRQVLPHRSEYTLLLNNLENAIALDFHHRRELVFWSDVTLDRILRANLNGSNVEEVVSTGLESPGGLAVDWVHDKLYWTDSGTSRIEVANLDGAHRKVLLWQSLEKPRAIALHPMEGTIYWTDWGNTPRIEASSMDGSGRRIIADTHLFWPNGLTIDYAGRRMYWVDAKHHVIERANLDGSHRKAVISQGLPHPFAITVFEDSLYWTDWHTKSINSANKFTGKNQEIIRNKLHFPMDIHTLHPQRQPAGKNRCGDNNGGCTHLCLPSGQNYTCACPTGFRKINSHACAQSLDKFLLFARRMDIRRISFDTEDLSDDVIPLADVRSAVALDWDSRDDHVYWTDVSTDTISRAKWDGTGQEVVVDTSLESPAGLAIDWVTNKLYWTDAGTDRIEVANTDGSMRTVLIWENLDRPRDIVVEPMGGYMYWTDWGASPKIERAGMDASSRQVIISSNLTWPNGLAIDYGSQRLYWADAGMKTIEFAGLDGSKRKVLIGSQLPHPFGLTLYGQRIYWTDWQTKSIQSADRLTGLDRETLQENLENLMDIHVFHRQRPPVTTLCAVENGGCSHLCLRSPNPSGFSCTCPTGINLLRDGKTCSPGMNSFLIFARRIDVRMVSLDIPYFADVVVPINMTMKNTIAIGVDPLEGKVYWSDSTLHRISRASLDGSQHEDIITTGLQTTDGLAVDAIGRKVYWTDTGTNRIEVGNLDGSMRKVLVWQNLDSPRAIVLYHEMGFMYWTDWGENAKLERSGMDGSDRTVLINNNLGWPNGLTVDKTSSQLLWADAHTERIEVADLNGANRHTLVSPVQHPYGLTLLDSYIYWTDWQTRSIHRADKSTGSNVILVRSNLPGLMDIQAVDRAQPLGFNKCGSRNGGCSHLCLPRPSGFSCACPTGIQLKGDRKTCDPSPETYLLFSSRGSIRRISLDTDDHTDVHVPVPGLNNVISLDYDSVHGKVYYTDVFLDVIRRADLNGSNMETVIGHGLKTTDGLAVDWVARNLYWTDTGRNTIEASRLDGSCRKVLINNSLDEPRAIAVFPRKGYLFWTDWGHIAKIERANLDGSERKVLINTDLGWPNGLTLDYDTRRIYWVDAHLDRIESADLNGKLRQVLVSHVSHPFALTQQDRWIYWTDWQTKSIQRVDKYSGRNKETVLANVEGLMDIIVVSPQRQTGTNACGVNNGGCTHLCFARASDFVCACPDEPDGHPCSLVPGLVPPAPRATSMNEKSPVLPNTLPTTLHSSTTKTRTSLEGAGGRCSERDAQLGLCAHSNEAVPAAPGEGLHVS

Regarding “recombinant rat neural agrin (Sf21-derived C-terminal agrin, His-tagged, R&D Systems) (from UniProt P25304 1-1959) (ligand)”, the percent reduction of ectoLRP4-AP (25 nM) binding to ColQ by 500 nM agrin is greater than 50%.
